This is an account of results in US20260132208A1 (DOMAIN THERAPEUTICS, published 2026).

Several values for one entry are separate records, joined by “and”; a condition that tells them apart may be missing. Equal values may be shown once.

In experiment [1] the target is T1, human CCR8 (human, UniProt P51685 1-355). Put plainly: cell-based or functional assay.
In experiment [2] the target is T1, human CCR8. Description: cell-based or functional assay. The source holds these as a separate data set.
Experiment [3] concerns the target T1, human CCR8. Description: cell-based or functional assay. The source holds these as a separate data set.
A further experiment has as its target T2, pm3 (Y17 sulfated; Y15 and Y16 not sulfated).
T2 construct: also called sulfated CCR8 N-terminal peptide pm3
Description: ELISA on coated peptide [cont.]. Summed up: (§1)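 Binding signal was the OD following TMB colour development for 15 min. The mAbs (1 μg/mL and a 1/10 dilution) were incubated 90 min at room temperature on wells coated with 500 ng/ml peptide.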

In the next experiment the target is T3, pm5 (Y15 and Y17 sulfated; Y16 not sulfated).
T3 construct: also called sulfated CCR8 N-terminal peptide pm5
T3 sequence (peptide, as listed by the source): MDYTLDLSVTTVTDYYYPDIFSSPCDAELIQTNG
Description: ELISA on coated peptide [cont.]. Summed up:
as §1
For orientation: In an ELISA, binding on a coated surface is turned into a signal by an enzyme label.

In the next experiment the target is T4, pm6 (Y16 and Y17 sulfated; Y15 not sulfated).
T4 construct: also called sulfated CCR8 N-terminal peptide pm6
T4 sequence (peptide, as listed by the source): as above
Put plainly: ELISA on coated peptide [cont.]. Summed up:
as §1

For the next experiment, the target named is T5, pm8 (Y15, Y16 and Y17 sulfated).
T5 construct: also called sulfated CCR8 N-terminal peptide pm8
T5 sequence (peptide, as listed by the source): as above
Description: ELISA on coated peptide [cont.]. Summed up:
as §1

Experiment [4] addresses T1, human CCR8. Put plainly: flow cytometry, hCCR8-transfected CHO-K1 cells. In outline:
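Bound mAb was detected with Alexa Fluor 488 anti-mouse IgG or PE anti-human IgG Fc by flow cytometry, with isotype controls. EC50 came from a four-parameter fit.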
A general note: In flow cytometry, cells or beads pass a laser one at a time.

For experiment [5], the target named is T1, human CCR8. Put plainly: flow cytometry, inhibition of hCCL1-AF647 (10 nM) binding to hCCR8-CHO cells. Summed up: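 hCCR8-transfected CHO cells preincubated 30 min at 4 °C with anti-CCR8 mAb (8 concentrations, top 10 μg/mL, 1/3 dilutions), washed, then exposed to labelled CCL1. Bound CCL1 quantified by flow cytometry; IC₅₀ of binding blockade from sigmoidal variable-slope fit.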

In experiment [6] the target is T1, human CCR8. Description: flow cytometry competition on hCCR8 transfected CHO cells; blocked ligand hCCL1-AF647 [cont.]. Here is the method: The hCCR8 transfected CHO cell line was dispatched at a density of 1.105 per well in a 96-well plate. Cells were incubated for 30 min at 4° C. with or without anti-CCR8 mAb tested at 10 μg/mL then diluted at 1/3. Unbound antibodies were washed away with PBS (Gibco, Villebon-sur-yvette, France) supplemented by 2% Fetal Bovine Serum (Invitrogen by Thermofisher Scientific, Illkirch-Graffenstaden, France) and 2 mM EDTA. […] After washing unbound ligands, CCL1 bound detection is quantified on a MacsQuant16 (Miltenyi, Gladbach, Germany) (R1 channel, 5 000 events per acquisition).
For IC₅₀ determination, a concentration response curve is performed using 8 concentrations of mAb. Curves are fitted and IC₅₀ of CCL1 binding blocking activity is calculated using the sigmoidal dose-response (variable slope) model on GraphPad Prism 9 (GraphPad Software, San Diego, CA, USA).

T2 sequence (peptide, as listed by the source): as above

B1: anti-CCR8 mAb 1-9 (antibody, V domains shown)
VH: EVQLVESGGGLVQPKGSLKLSCAASGFTFNAYAMNWVRQAPGKGLEWLARIRSKSNNYATYYADSVKDRFTISRDDSQSMFYLQMNNLKSEDTAMYYCVRGREAYYRYDGGYYAMDYWGQGTSVTVSS
VL: EIVMTQAALSAPVTPGESVSMSCRSSKSLLHSNGNTYLYWFLQRPGQSPQLLIYRMSNLASGVPDRFSGSGSGTAFTLRISRVEAEDVGVYYCMQHLEYPFTFGSGTKLEIK
notes: Murine hybridoma mAb
Take B1: in the experiment with human CCR8 [1], the “IC50 of CCL1-induced hCCR8 Gi2 signaling (BRET, HEK-293)” value is 0.015 µg/mL and 0.1 nM. Moreover, in the experiment with human CCR8 [2], the “residual hCCL1 (100 nM) Gi2 response, protocol #2, mAb 0.08 µg/mL” value is 88%; the “residual hCCL1 (100 nM) Gi2 response, protocol #2, mAb 0.4 µg/mL” value was determined as 57%; the “residual hCCL1 (100 nM) Gi2 response, protocol #2, mAb 10 µg/mL” value was 46%; the “residual hCCL1 (100 nM) Gi2 response, protocol #3, mAb 0.05 µg/mL” value came to 73%. In the experiment with human CCR8 [2], the “residual hCCL1 (100 nM) Gi2 response, protocol #3, mAb 0.5 µg/mL” value turned out to be 36% and the “residual hCCL1 (100 nM) Gi2 response, protocol #3, mAb 5 µg/mL” value amounted to 36%. For the same molecule, the “extrapolated top plateau of hCCL1 curve with 5 µg/mL mAb, protocol #3” value with human CCR8 [3] was 533000 % of hCCL1 (100 nM). Moreover, the binding result in the experiment with pm3 is given as “binds”. In the experiment with pm5, the binding result is reported as “binds”. The binding result with pm6 is “binds”. In the experiment with pm8, the binding result was “binds”. For the same molecule, in the experiment with human CCR8 [4], the “% positive cells” value was 81.8% and the “MFI fold change to isotype ctrl” value was 16.2 fold. In addition, the IC50 (as a rule, the concentration at which inhibition is half-maximal) in the experiment with human CCR8 [5] is ~0.91 µg/mL and 6.09 nM. The “IC50 (read off the curve)” value with human CCR8 [6] is roughly 0.9 µg/mL.
